Our source for the Kd, koff and kon values is publication PMC8377056.

Values joined by “and” are separate entries in the source; they are usually repeats but may differ in a detail not shown here. Equal entries are not always repeated.

The target of experiment [1] is His-tagged recombinant mouse LDLR (mouse) (UniProt P35951). The experiment can be described thus: SPR; His-tagged LDLR immobilised on a NiHC1000m sensor chip; VH4127 (10-160 nM) or Fc(A680)-VH4127 (1-16 nM) injected, single-cycle kinetics; 1:1 Langmuir model; Biacore T200.
Chain of His-tagged recombinant mouse LDLR (mouse) (P35951 22-790): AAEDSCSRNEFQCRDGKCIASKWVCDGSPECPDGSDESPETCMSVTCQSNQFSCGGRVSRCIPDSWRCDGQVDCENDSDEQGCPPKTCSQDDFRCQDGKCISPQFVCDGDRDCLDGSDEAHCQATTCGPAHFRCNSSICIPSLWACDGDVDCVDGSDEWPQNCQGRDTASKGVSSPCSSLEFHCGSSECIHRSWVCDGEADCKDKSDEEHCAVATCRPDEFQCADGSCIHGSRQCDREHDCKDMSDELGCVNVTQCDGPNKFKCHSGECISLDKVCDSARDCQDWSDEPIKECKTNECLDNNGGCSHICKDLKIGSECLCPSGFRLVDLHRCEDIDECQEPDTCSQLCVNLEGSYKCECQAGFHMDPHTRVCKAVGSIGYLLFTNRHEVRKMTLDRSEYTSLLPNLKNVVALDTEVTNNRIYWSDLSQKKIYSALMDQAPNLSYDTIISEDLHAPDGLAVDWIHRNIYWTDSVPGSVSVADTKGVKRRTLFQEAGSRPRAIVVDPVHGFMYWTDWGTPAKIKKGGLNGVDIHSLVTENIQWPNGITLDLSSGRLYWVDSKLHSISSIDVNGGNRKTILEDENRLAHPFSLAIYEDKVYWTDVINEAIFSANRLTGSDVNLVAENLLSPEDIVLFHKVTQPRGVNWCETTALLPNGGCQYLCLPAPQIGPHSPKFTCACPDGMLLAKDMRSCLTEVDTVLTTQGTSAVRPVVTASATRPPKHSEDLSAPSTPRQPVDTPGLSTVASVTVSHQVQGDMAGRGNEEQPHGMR
Experiment [2] deals with His-tagged recombinant human LDLR (human) (UniProt P01130). The experiment can be described thus: SPR; His-tagged LDLR immobilised on a NiHC1000m sensor chip; VH4127 (10-160 nM) injected, single-cycle kinetic method; double-subtracted sensorgrams fitted globally with the 1:1 Langmuir model (Biacore T200).
Chain of His-tagged recombinant human LDLR (human) (P01130 22-788): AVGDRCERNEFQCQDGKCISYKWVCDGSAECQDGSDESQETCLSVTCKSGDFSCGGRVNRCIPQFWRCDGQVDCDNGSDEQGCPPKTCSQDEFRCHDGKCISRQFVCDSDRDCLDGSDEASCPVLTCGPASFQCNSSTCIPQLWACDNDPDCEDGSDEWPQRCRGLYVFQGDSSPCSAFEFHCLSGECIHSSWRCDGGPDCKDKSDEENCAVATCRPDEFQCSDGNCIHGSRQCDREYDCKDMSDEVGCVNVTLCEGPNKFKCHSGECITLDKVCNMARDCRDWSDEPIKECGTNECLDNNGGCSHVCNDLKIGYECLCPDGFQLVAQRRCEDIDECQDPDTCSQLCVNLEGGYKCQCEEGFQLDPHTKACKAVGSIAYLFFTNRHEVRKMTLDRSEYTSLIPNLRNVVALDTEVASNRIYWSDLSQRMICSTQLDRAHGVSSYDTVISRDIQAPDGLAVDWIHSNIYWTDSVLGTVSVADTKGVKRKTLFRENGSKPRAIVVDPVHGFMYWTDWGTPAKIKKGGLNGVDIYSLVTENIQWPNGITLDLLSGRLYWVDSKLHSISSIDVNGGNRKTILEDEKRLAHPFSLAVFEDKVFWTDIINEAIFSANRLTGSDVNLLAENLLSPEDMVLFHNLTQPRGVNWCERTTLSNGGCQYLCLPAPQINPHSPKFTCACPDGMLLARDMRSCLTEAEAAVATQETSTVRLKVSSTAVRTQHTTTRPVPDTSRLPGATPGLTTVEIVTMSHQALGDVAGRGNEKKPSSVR
Experiment [3] has as its target His-tagged recombinant mouse LDLR (mouse) (UniProt P35951). Described as above.
Experiment [4] addresses His-tagged recombinant human LDLR (human) (UniProt P01130). The experiment is described as follows: SPR; His-tagged mouse or human LDLR immobilised on a NiHC1000m sensor chip; VH4127 (10-160 nM) or Fc(A680)-VH4127 (1-16 nM) injected, single-cycle kinetics; double-subtracted sensorgrams fitted globally with the 1:1 Langmuir model (Biacore T200).

In the case of Fc(A680)-VH4127 conjugate (Fc fusion), the Kd in experiment [1] came to 0.0918 nM.

On to VH4127 peptide, for which, in experiment [2], the koff amounted to 0.0894 s⁻¹ and the kon stood at 4.06e+06 M⁻¹ s⁻¹. For the same substance, in experiment [3], the koff was found to be 0.0821 s⁻¹ and the association rate constant (kon) was 1.66e+06 M⁻¹ s⁻¹. Also, in experiment [4], the Kd is 21.5 nM and 20 nM and 23.2 nM.
